Source: the supplement of paper PMC7877785
± gives the uncertainty stated by the source.

Assay: self-splicing fitness, log relative to wild type (ln ratio); higher = more splicing; Tetrahymena group I intron in knt gene, E. coli kanamycin selection, DiMSum; sequences stand for … in CUCUCU…GGAGGGAAAAGUUAUCAGGCAUGCACCUGGUAGCUAGUCUUUAAACCAAUAGAUUGCAUCGGUUUAAAAGGCAAGACCGUCAAAUUGCGGGAAAGGGGUCAACAGCCGUUCAGUACCAAGUCUCAGGGGAAACUUUGAGAUGGCCUUGCAAAGGGUAUGGUAAUAAGCUGACGGACAUGGUCCUAACCACGCAGCCAAGUCCUAAGUCAACAGAUCUUCUGUUGAUAUGGAUGCAGUUCACAGACUAAAUGUCGGUCGGGGAAGAUGUAUUCUUCUCAUAAGAUAUAGUCGGACCUCUCCUUAAUGGGAGCUAGCGGAUGAAGUGAUGCAACACUGGAGCCGCUGGGAACUAAUUUGUAUGCGAAAGUAUAUUGAUUAGUUUUGGAGUACUCGUGGUCG
Summary of the method: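 A randomised library covering all eight P1ex-region intron nucleotides was built with the intron in the knt kanamycin-resistance gene on pET-22b(+) and held in E. coli BL21(DE3). Cells were grown overnight at 37°C or 30°C on LB agar, with or without 25 μg/mL kanamycin, plus 100 μg/mL carbenicillin, 50 μM IPTG and 0.2% rhamnose, and pooled colonies were amplicon-sequenced on an Illumina HiSeq 2500. DiMSum fitness is the error-weighted combination of wild-type-normalised replicate fold changes, kanamycin versus none.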

## UAAUAGCAAUAUUACGGUAG
30 °C
  self-splicing fitness (ln): -3.43 ± 0.14
37 °C
  self-splicing fitness (ln): -2.05 ± 0.14

## UAAUAGCAAUAUUACGGUUG
30 °C
  self-splicing fitness (ln): -0.0942 ± 0.085
37 °C
  self-splicing fitness (ln): -0.0839 ± 0.091

## UAAUAGCAAUAUUACGUACU
30 °C
  self-splicing fitness (ln): -1.91 ± 0.094
37 °C
  self-splicing fitness (ln): -0.805 ± 0.088

## UAAUAGCAAUAUUACGUUCG
30 °C
  self-splicing fitness (ln): -0.563 ± 0.11
37 °C
  self-splicing fitness (ln): 0.133 ± 0.12

## UACAAGCAAUAUUACGAAAC
37 °C
  self-splicing fitness (ln): -1.61 ± 0.32

## UACAAGCAAUAUUACGAAUU
30 °C
  self-splicing fitness (ln): -2.48 ± 0.16
37 °C
  self-splicing fitness (ln): -2.99 ± 0.26

## UACAAGCAAUAUUACGAGGG
30 °C
  self-splicing fitness (ln): -2.8 ± 0.14
37 °C
  self-splicing fitness (ln): -1.47 ± 0.14

## UACAAGCAAUAUUACGAUAC
30 °C
  self-splicing fitness (ln): -3.7 ± 0.44
37 °C
  self-splicing fitness (ln): -2.34 ± 0.25

## UACAAGCAAUAUUACGCAUA
30 °C
  self-splicing fitness (ln): -2.07 ± 0.11
37 °C
  self-splicing fitness (ln): -0.871 ± 0.11

## UACAAGCAAUAUUACGCCAC
30 °C
  self-splicing fitness (ln): -2.95 ± 0.27

## UACAAGCAAUAUUACGCGGA
30 °C
  self-splicing fitness (ln): -1.85 ± 0.092
37 °C
  self-splicing fitness (ln): -1.21 ± 0.098

## UACAAGCAAUAUUACGCGGC
30 °C
  self-splicing fitness (ln): -3.59 ± 0.24
37 °C
  self-splicing fitness (ln): -2.91 ± 0.31

## UACAAGCAAUAUUACGCUAC
30 °C
  self-splicing fitness (ln): -3.76 ± 0.29
37 °C
  self-splicing fitness (ln): -2.26 ± 0.21

## UACAAGCAAUAUUACGCUCU
30 °C
  self-splicing fitness (ln): -1.36 ± 0.087
37 °C
  self-splicing fitness (ln): -0.0585 ± 0.11

## UACAAGCAAUAUUACGGACA
30 °C
  self-splicing fitness (ln): -0.516 ± 0.087
37 °C
  self-splicing fitness (ln): 0.0805 ± 0.083

## UACAAGCAAUAUUACGGACG
30 °C
  self-splicing fitness (ln): -0.321 ± 0.075
37 °C
  self-splicing fitness (ln): 0.44 ± 0.097

## UACAAGCAAUAUUACGGACU
30 °C
  self-splicing fitness (ln): -1.22 ± 0.079
37 °C
  self-splicing fitness (ln): -0.00357 ± 0.085

## UACAAGCAAUAUUACGGGUG
30 °C
  self-splicing fitness (ln): -0.523 ± 0.04
37 °C
  self-splicing fitness (ln): -0.55 ± 0.054

## UACAAGCAAUAUUACGGUUA
30 °C
  self-splicing fitness (ln): -0.0426 ± 0.052
37 °C
  self-splicing fitness (ln): -0.221 ± 0.063

## UACAAGCAAUAUUACGUCGG
30 °C
  self-splicing fitness (ln): -2.46 ± 0.082
37 °C
  self-splicing fitness (ln): -0.921 ± 0.088

## UACAAGCAAUAUUACGUGUU
30 °C
  self-splicing fitness (ln): -2.85 ± 0.081
37 °C
  self-splicing fitness (ln): -1.58 ± 0.11

## UACAAGCAAUAUUACGUUGC
30 °C
  self-splicing fitness (ln): -4.71 ± 0.42
37 °C
  self-splicing fitness (ln): -2.94 ± 0.27

## UACAAGCAAUAUUACGUUUC
30 °C
  self-splicing fitness (ln): -2.55 ± 0.2
37 °C
  self-splicing fitness (ln): -1.72 ± 0.2

## UACCAGCAAUAUUACGACUG
30 °C
  self-splicing fitness (ln): -4.48 ± 0.39
37 °C
  self-splicing fitness (ln): -3.05 ± 0.25

## UACCAGCAAUAUUACGAGAG
30 °C
  self-splicing fitness (ln): -2.64 ± 0.12
37 °C
  self-splicing fitness (ln): -1.12 ± 0.081

## UACCAGCAAUAUUACGAGAU
30 °C
  self-splicing fitness (ln): -3.69 ± 0.21
37 °C
  self-splicing fitness (ln): -3.25 ± 0.13

## UACCAGCAAUAUUACGAGUA
30 °C
  self-splicing fitness (ln): -1.25 ± 0.085
37 °C
  self-splicing fitness (ln): -1.69 ± 0.08

## UACCAGCAAUAUUACGAUCA
30 °C
  self-splicing fitness (ln): -0.119 ± 0.07
37 °C
  self-splicing fitness (ln): -0.323 ± 0.09

## UACCAGCAAUAUUACGAUGA
30 °C
  self-splicing fitness (ln): -0.0346 ± 0.056
37 °C
  self-splicing fitness (ln): -0.119 ± 0.065

## UACCAGCAAUAUUACGAUGG
30 °C
  self-splicing fitness (ln): -3.01 ± 0.11
37 °C
  self-splicing fitness (ln): -1.25 ± 0.091

## UACCAGCAAUAUUACGCAGA
30 °C
  self-splicing fitness (ln): -1.24 ± 0.11
37 °C
  self-splicing fitness (ln): -0.165 ± 0.11

## UACCAGCAAUAUUACGCAGC
30 °C
  self-splicing fitness (ln): -2.72 ± 0.18
37 °C
  self-splicing fitness (ln): -1.87 ± 0.23

## UACCAGCAAUAUUACGCCGU
30 °C
  self-splicing fitness (ln): -1.4 ± 0.14
37 °C
  self-splicing fitness (ln): -1.6 ± 0.23

## UACCAGCAAUAUUACGCUUG
30 °C
  self-splicing fitness (ln): -1.01 ± 0.073
37 °C
  self-splicing fitness (ln): -0.79 ± 0.095

## UACCAGCAAUAUUACGGACC
30 °C
  self-splicing fitness (ln): -0.962 ± 0.071
37 °C
  self-splicing fitness (ln): -0.872 ± 0.086

## UACCAGCAAUAUUACGGAUG
30 °C
  self-splicing fitness (ln): -0.756 ± 0.055
37 °C
  self-splicing fitness (ln): 0.494 ± 0.085

## UACCAGCAAUAUUACGGCCA
30 °C
  self-splicing fitness (ln): -0.369 ± 0.073
37 °C
  self-splicing fitness (ln): -0.0799 ± 0.097

## UACCAGCAAUAUUACGGGAC
30 °C
  self-splicing fitness (ln): -3.46 ± 0.19
37 °C
  self-splicing fitness (ln): -2.31 ± 0.2

## UACCAGCAAUAUUACGGGUU
30 °C
  self-splicing fitness (ln): -2.21 ± 0.085
37 °C
  self-splicing fitness (ln): -1.46 ± 0.1

## UACCAGCAAUAUUACGUAAC
30 °C
  self-splicing fitness (ln): -2.64 ± 0.13
37 °C
  self-splicing fitness (ln): -2.18 ± 0.2

## UACCAGCAAUAUUACGUAGG
30 °C
  self-splicing fitness (ln): -3.19 ± 0.2
37 °C
  self-splicing fitness (ln): -2.74 ± 0.24

## UACCAGCAAUAUUACGUCCC
30 °C
  self-splicing fitness (ln): -1.47 ± 0.35
37 °C
  self-splicing fitness (ln): -1.38 ± 0.38
